This data set deals with newly diagnosed CD30-positive mature T- and NK-cell neoplasms, including sALCL. The data set can be described thus: Phase 1 study SGN35-011: brentuximab vedotin with CHOP or CHP chemotherapy. The class given is in vivo, human. The note with it: given concomitantly with CHP. From the text:
The clinical safety and activity of brentuximab vedotin administered sequentially and concurrently with multiagent chemotherapy were previously evaluated in a phase 1 study in patients with newly diagnosed CD30-positive mature T- and NK-cell neoplasms, including sALCL (Study SGN35-011). This phase 1 study was implemented to determine the safety and activity of sequential and combination frontline treatment approaches of brentuximab vedotin with CHOP or CHP chemotherapy. The maximum tolerated dose of brentuximab vedotin was 1.8 mg/kg given concomitantly with CHP. At an interim analysis in this study (data presented at the T-Cell Lymphoma Forum 2012), 20 patients in this study had been treated with brentuximab vedotin 1.2 or 1.8 mg/kg given concomitantly with CHP for 6 cycles, followed by continued brentuximab vedotin every 3 weeks for up to 10 additional cycles for responding patients.

One substance from patent US20200102399A1, “Methods of Treating Peripheral T Cell Lymphoma Using Anti-CD30 Antibody Drug Conjugate Therapy” (Seattle Genetics, Inc., priority 2018, published 2020) can be followed below.

With brentuximab vedotin, the maximum tolerated dose was 1.8 mg/kg.
